# B1: Arabidopsis thaliana S-nitrosoglutathione reductase (AtGSNOR), CysSH-treated control (unmodified) (enzyme)
# chain: ATQGQVITCKAAVAYEPNKPLVIEDVQVAPPQAGEVRIKILYTALCHTDAYTWSGKDPEGLFPCILGHEAAGIVESVGEGVTEVQAGDHVIPCYQAECRECKFCKSGKTNLCGKVRSATGVGIMMNDRKSRFSVNGKPIYHFMGTSTFSQYTVVHDVSVAKIDPTAPLDKVCLLGCGVPTGLGAVWNTAKVEPGSNVAIFGLGTVGLAVAEGAKTAGASRIIGIDIDSKKYETAKKFGVNEFVNPKDHDKPIQEVIVDLTDGGVDYSFECIGNVSVMRAALECCHKGWGTSVIVGVAASGQEISTRPFQLVTGRVWKGTAFGGFKSRTQVPWLVEKYMNKEIKVDEYITHNLTLGEINKAFDLLHEGTCLRCVLDTSK
# Target: the molecule itself
# Test: native MS
protein,measurement,value
B1,stoichiometry N,2
